The experiment concerns the target T1, ngζ_1 toxin (zeta_1) of Neisseria gonorrhoeae, wild type (Neisseria gonorrhoeae, UniProt D5K9G7).
T1 sequence: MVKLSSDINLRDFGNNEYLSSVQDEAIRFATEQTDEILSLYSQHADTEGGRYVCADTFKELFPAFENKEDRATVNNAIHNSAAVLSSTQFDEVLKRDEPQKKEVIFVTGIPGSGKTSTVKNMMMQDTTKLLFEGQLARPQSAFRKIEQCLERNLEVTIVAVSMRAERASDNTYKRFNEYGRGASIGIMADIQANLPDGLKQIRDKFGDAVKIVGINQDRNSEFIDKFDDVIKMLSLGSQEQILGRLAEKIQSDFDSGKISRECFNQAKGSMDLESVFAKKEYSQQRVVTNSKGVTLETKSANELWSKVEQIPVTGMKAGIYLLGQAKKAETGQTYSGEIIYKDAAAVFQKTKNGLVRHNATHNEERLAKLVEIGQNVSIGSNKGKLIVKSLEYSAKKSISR
The experiment is described as follows: crystal structure. As to conditions: both partners purified.

B1: ngε_1 antitoxin (epsilon_1) of Neisseria gonorrhoeae (natural protein)
chain: MNKVEPQESNAIRMIKEACEKNRRMMTDEAFRKEVEKRLYAGPSPELLAKLRVLWAANKEQ
notes: also called ng_ɛ1; source: E. coli BL21(DE3)-RIL, purified as ngε_1/ngζ_1 complex (Ni-NTA, standard chromatographic procedures)
As for B1, the binding result was “binds”.

The record behind these values is publication PMC5923241, “The ng_ζ1 toxin of the gonococcal epsilon/zeta toxin/antitoxin system drains precursors for cell wall synthesis” (Nature Communications, 2018).
